B1: CD3 × CD33-BspAb38 (bispecific antibody)
chain 1: not shown
chain 2: EVQLVQSGAEVKKPGSSVKVSCKASGYTITDSNIHWVRQAPGQSLEWIGYIYPYNGGTDYNQKFKNRATLTVDNPTNTAYMELSSLRSEDTAFYYCVNGNPWLAYWGQGTLVTVSSASTKGPSVFPLAPSSKSTSGGTAALGCLVKDYFPEPVTVSWNSGALTSGVHTFPAVLQSSGLYSLSSVVTVPSSSLGTQTYICNVNHKPSNTKVDKRVEPKSCDKTHTCPPCPAPEFEGGPSVFLFPPKPKDTLMISRTPEVTCVVVDVSHEDPEVKFNWYVDGVEVHNAKTKPREEQYNSTYRVVSVLTVLHQDWLNGKEYKCKVSNKALPASIEKTISKAKGQPREPQVCTLPPSREEMTKNQVSLSCAVKGFYPSDIAVEWESNGQPENNYKTTPPVLDSDGSFFLVSKLTVDKSRWQQGNVFSCSVMHEALHNRFTQKSLSLSPGK
chain 3: DIQLTQSPSTLSASVGDRVTITCRASESLDNYGIRFLTWFQQKPGKAPKLLMYAASNQGSGVPSRFSGSGSGTEFTLTISSLQPDDFATYYCQQTKEVPWSFGQGTKVEVKRTVAAPSVFIFPPSDEQLKSGTASVVCLLNNFYPREAKVQWKVDNALQSGNSQESVTEQDSKDSTYSLSSTLTLSKADYEKHKVYACEVTHQGLSSPVTKSFNRGEC
B2: CD3 × CD33-BspAb51 (bispecific antibody)
chain 1: not shown
chain 2: B1 chain 2
chain 3: B1 chain 3
B3: CD3 × CD33-BspAb45 (bispecific antibody)
chain 1: EVQLVESGGGLVQPGGSLRLSCAASGFTFSRYSMNWVRQAPGKCLEWVSYISSSSSSIYYADSVKGRFTISRDNAKNSLYLQMNSLRDEDTAVYYCARDRRATLDYWGQGTLVTVSSGGGGSGGGGSGGGGSGGGGSNFMLTQPHSVSESPGKTVTISCTRSSGSIASNYVQWYQQRPGSSPTTVIYEDNQRPSGVPDRFSGSIDSSSNSASLTISGLKTEDEADYYCQSYDSSNHVFGCGTKLTVLDKTHTCPPCPAPEFEGGPSVFLFPPKPKDTLMISRTPEVTCVVVDVSHEDPEVKFNWYVDGVEVHNAKTKPREEQYNSTYRVVSVLTVLHQDWLNGKEYKCKVSNKALPASIEKTISKAKGQPREPQVYTLPPCREEMTKNQVSLWCLVKGFYPSDIAVEWESNGQPENNYKTTPPVLDSDGSFFLYSKLTVDKSRWQQGNVFSCSVMHEALHNHYTQKSLSLSPGK
chain 2: B1 chain 2
chain 3: B1 chain 3
B4: CD3 × CD33-BspAb72 (bispecific antibody)
chain 1: EVQLVESGGGLVQPGGSLRLSCAASGFTFSSYSMNWVRQAPGKCLEWVSYISSSSSTIYYADSVKGRFTISRDNAKNSLYLQMNSLRDEDTAVYYCARDGPVDYGMDVWGQGTTVTVSSGGGGSGGGGSGGGGSGGGGSSYELTQPPSVSVSPGQTARITCSGDALPKQYTYWYQQKPGQAPVLVIYKDSERPSGIPERFSGSSSGTTVTLTISGVQAEDEADYYCQSADSSGTYRVFGCGTKLTVLDKTHTCPPCPAPEFEGGPSVFLFPPKPKDTLMISRTPEVTCVVVDVSHEDPEVKFNWYVDGVEVHNAKTKPREEQYNSTYRVVSVLTVLHQDWLNGKEYKCKVSNKALPASIEKTISKAKGQPREPQVYTLPPCREEMTKNQVSLWCLVKGFYPSDIAVEWESNGQPENNYKTTPPVLDSDGSFFLYSKLTVDKSRWQQGNVFSCSVMHEALHNHYTQKSLSLSPGK
chain 2: B1 chain 2
chain 3: B1 chain 3
B5: CD3 × CD33-BspAb52 (bispecific antibody)
chain 1: not shown
chain 2: B1 chain 2
chain 3: B1 chain 3
B6: CD3 × CD33-BspAb73 (bispecific antibody)
chain 1: EVQLVESGGGLVKPGGSLRLSCAASGFTFSSYSMNWVRQAPGKCLEWVSSVNSRGSYIYYADSVKGRFTISRDNAKDSLYLQMNSLRADDTAVYYCARDRRELLLDYWGQGTLVTVSSGGGGSGGGGSGGGGSGGGGSSYELTQPPSVSVSPGQTARITCSGDALPKKYAYWYQQKSGQAPVLVIYEDSKRPSGIPERFSGSSSGTMATLTISGAQVEDEADYYCYSTDSSGNHSWVFGCGTKLTVLDKTHTCPPCPAPEFEGGPSVFLFPPKPKDTLMISRTPEVTCVVVDVSHEDPEVKFNWYVDGVEVHNAKTKPREEQYNSTYRVVSVLTVLHQDWLNGKEYKCKVSNKALPASIEKTISKAKGQPREPQVYTLPPCREEMTKNQVSLWCLVKGFYPSDIAVEWESNGQPENNYKTTPPVLDSDGSFFLYSKLTVDKSRWQQGNVFSCSVMHEALHNHYTQKSLSLSPGK
chain 2: B1 chain 2
chain 3: B1 chain 3
B7: CD3 × CD33-BspAb66 (bispecific antibody, human IgG1, kappa)
scFv: EVQLVESGGGLVQPGRSLRLSCAASGFTFDDYAMHWVRQAPGKGLEWVSGISWNSGSIGYADSVKGRFTISRDNAKNSLYLQMNSLRAEDTALYYCAKDSRGYGDYRLGGAYWGQGTLVTVSSGGGGSGGGGSGGGGSGGGGSEIVMTQSPATLSVSPGERATLSCRASQSVSSNLAWYQQKPGQAPRLLIYGASTRATGIPARFSGSGSGTEFTLTISSLQSEDFAVYYCQQYNNWPWTFGQGTKVEIKTSGPGGPDKTHTCPPCPAPEFEGGPSVFLFPPKPKDTLMISRTPEVTCVVVDVSHEDPEVKFNWYVDGVEVHNAKTKPREEQYNSTYRVVSVLTVLHQDWLNGKEYKCKVSNKALPASIEKTISKAKGQPREPQVYTLPPCREEMTKNQVSLWCLVKGFYPSDIAVEWESNGQPENNYKTTPPVLDSDGSFFLYSKLTVDKSRWQQGNVFSCSVMHEALHNHYTQKSLSLSPGK
heavy: B1 chain 2
light: B1 chain 3
B8: ABL-CD3-64 (antibody, V domains shown)
VH: EVQVAESGGGLVKPGGSLRLSCAASGFTFSRYSMNWVRQAPGKGLEWVSSISSSGSYTYYADSVKGRFTISRDNAKNSLYLQMNSLRAEDTAVYYCVRERGKGAGMDVWGQGTTVTVSS
VL: NFMLTQPHSVSESPGKTVTISCTRSSGSIASNYVQWYQQRPGSSPTTVIYEDNQRPSGVPDRFSGSIDSSSNSASLTISGLKTEDEADYYCQSYDSSNRVFGGGTKLTVL
notes: mAb purified from hybridoma; chimeric AlivaMab IgG (human VH, CH1 and upper hinge; mouse middle hinge, CH2, CH3; human light chain)

Biological target: T1, human CD3 (on human Pan-T cells or donor PBMC) (human, UniProt P07766 23-207; P04234 22-171; P09693 23-182; P20963 22-164)
T1 sequence (P07766 23-207, chain 1 of 4): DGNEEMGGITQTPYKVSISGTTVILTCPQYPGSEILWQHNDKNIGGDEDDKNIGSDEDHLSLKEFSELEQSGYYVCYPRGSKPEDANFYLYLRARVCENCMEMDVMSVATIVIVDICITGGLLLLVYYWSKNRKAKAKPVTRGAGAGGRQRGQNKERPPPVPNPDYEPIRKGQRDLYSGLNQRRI
T1 sequence (P04234 22-171, chain 2 of 4): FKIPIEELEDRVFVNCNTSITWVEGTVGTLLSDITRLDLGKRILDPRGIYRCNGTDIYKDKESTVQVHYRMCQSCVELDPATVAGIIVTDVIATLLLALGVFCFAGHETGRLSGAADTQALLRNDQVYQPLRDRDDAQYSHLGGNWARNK
T1 sequence (P09693 23-182, chain 3 of 4): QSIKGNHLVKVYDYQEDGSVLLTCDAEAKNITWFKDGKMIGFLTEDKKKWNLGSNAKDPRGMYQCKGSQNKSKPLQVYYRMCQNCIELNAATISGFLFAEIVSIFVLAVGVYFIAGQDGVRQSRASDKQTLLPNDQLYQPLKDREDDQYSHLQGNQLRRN
T1 sequence (P20963 22-164, chain 4 of 4): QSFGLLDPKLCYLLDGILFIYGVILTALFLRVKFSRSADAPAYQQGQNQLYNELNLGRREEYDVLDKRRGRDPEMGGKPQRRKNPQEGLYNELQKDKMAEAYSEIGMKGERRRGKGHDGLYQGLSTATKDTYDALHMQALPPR
Assay: cell-based or functional assay

Binder	Cytokine Release Assay (IFNγ), Donor 0, EC50 [nM]	Cytokine Release Assay (IFNγ), Donor 0, gMFI max [gMFI]	Cytokine Release Assay (IFNγ), Donor 1, gMFI max [gMFI]	Cytokine Release Assay (IFNγ), Donor 2, EC50 [nM]	Cytokine Release Assay (IFNγ), Donor 2, gMFI max [gMFI]	Cytokine Release Assay (IFNγ), Donor 3, EC50 [nM]	Cytokine Release Assay (IFNγ), Donor 3, gMFI max [gMFI]	Cytokine Release Assay (IFNγ), Donor 1, EC50 [nM]
B1	8.38	555000	4320	13.4	18000	6.38	98500	–
B2	0.269	1.34e+06	10800	0.292	30600	0.214	355000	15.3
B3	0.096	1.39e+06	4630	0.0684	26900	–	290000	–
B4	–	465000	4820	49.1	12200	–	82800	–
B5	–	6350	4220	–	4670	25.4	8060	–
B6	–	308000	4350	8.61	26900	4.64	198000	–
B7	12.9	1.25e+06	7650	22.9	28300	52.6	379000	–

Biological target: T2, recombinant human CD3 epsilon/gamma heterodimer (human, UniProt P07766 23-126; P09693 23-116)
T2 construct: Recombinant heterodimer used as analyte in Octet; also called hCD3 E/G
T2 sequence (P07766 23-126, chain 1 of 2): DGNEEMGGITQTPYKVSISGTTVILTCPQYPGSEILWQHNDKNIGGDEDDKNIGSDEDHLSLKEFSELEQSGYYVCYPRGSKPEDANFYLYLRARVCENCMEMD
T2 sequence (P09693 23-116, chain 2 of 2): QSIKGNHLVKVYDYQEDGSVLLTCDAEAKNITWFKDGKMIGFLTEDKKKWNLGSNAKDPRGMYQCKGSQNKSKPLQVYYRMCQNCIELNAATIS
Assay: BLI (Octet), mAb 5 ug/mL on FAB2G sensor, hCD3 E/G 200-50 nM;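 also: antibodies purified from hybridoma supernatants, measured by Octet binding to recombinant human CD3 protein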

Binder	Kd [nM]	Response	koff [s⁻¹]	kon [M⁻¹ s⁻¹]
B8	71.9	0.46	0.013	180000

Biological target: T1, human CD3 (on human Pan-T cells or …)
Assay: cell-based or functional assay
Remark: another data set of the same source

Binder	RTCC Assay, Donor 0, EC50 [nM]	RTCC Assay, Donor 0, gMFI max [gMFI]	RTCC Assay, Donor 1, EC50 [nM]	RTCC Assay, Donor 1, gMFI max [gMFI]	RTCC Assay, Donor 2, EC50 [nM]	RTCC Assay, Donor 2, gMFI max [gMFI]	RTCC Assay, Donor 3, EC50 [nM]	RTCC Assay, Donor 3, gMFI max [gMFI]
B1	1.49	23300	0.413	64800	0.717	50500	1.72	75800
B2	0.2	28400	0.036	66900	0.05	55800	0.085	80600
B3	0.03	23300	0.004	76100	0.012	55900	0.02	86700
B4	5.36	21000	0.819	78100	2.43	54100	4.9	66200
B5	5.21	16200	0.762	57800	2.28	37700	7.83	42700
B6	0.086	15600	0.035	79900	0.089	56100	0.159	74000
B7	2.92	29700	0.937	65800	1.85	53900	2.33	75900

Biological target: T3, recombinant human CD3 epsilon/delta heterodimer (human, UniProt P07766 23-126; P04234 22-105)
T3 construct: Recombinant heterodimer used as analyte in Octet; also called hCD3 E/D; human CD3E/D
T3 sequence (P07766 23-126, stated change not applied, chain 1 of 2): as the sequence (P07766 23-126, chain 1 of 2) above
T3 sequence (P04234 22-105, stated change not applied, chain 2 of 2): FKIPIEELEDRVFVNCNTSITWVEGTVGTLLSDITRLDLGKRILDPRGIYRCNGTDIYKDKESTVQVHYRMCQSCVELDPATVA
Assay: BLI (Octet), mAb 5 ug/mL on FAB2G sensor, hCD3 E/D 200-50 nM

Binder	Kd [nM]	Response	koff [s⁻¹]	kon [M⁻¹ s⁻¹]
B8	31.6	0.68	0.0054	171000

Reference: patent US20260167721A1 (ABLEXIS, published 2026)
